Data from patent publication US20050244864A1, “Development and use of fluorescent probes of unbound analytes” (priority 2004, published 2005).

Tests used:
Assay type in all cases: binding
[1] = Probe fluorescence ratio response to stearate:BSA complex, relative to ADIFAB2 (ΔR/ΔRAD2); conditions: fluorescence response (R-Ro) relative to ADIFAB2
[2] = Probe fluorescence ratio response to linoleate:BSA complex, relative to ADIFAB2 (ΔR/ΔRAD2); conditions: fluorescence response (R-Ro) relative to ADIFAB2; linoleate
Summary of the method: (§1)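 Mutant probes were screened against fatty acid:BSA complexes made by adding fatty acid sodium salts at pH 11 to BSA in HEPES, titrated until ADIFAB2 gave ΔR ≈0.4 ([FFAu] 100–1000 nM). Wells held 6 μM BSA; excitation 375 nm, emission 550/457 nm, background-subtracted.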

[3] = Probe fluorescence ratio response to linolenate:BSA complex, relative to ADIFAB2 (ΔR/ΔRAD2); conditions: fluorescence response (R-Ro) relative to ADIFAB2; linolenate
Summary of the method: as §1

[4] = Probe fluorescence ratio response to oleate:BSA complex, relative to ADIFAB2 (ΔR/ΔRAD2); conditions: fluorescence response (R-Ro) relative to ADIFAB2; oleate
Summary of the method: as §1

[5] = Probe fluorescence ratio response to arachidonate:BSA complex, relative to ADIFAB2 (ΔR/ΔRAD2); conditions: fluorescence response (R-Ro) relative to ADIFAB2; arachidonate
Summary of the method: as §1

[6] = Probe fluorescence ratio response to palmitoleate:BSA complex, relative to ADIFAB2 (ΔR/ΔRAD2); conditions: fluorescence response (R-Ro) relative to ADIFAB2
[7] = Probe fluorescence ratio response to palmitate:BSA complex, relative to ADIFAB2 (ΔR/ΔRAD2); conditions: fluorescence response (R-Ro) relative to ADIFAB2; palmitate
Summary of the method: as §1

Molecule	ΔR/ΔRAD2 SA [1]	ΔR/ΔRAD2 LA [2]	ΔR/ΔRAD2 LNA [3]	ΔR/ΔRAD2 OA [4]	ΔR/ΔRAD2 AA [5]	ΔR/ΔRAD2 POA [6]	ΔR/ΔRAD2 PA [7]
L2P22G6: acrylodan-labeled rI-FABP-L72A mutein: M18 I, G31 Y, F55 WT, A73 G (protein, UniProt P02693 2-132, looked up, variant M18I G31Y L72A A73G, acrylodan label, acrylodan-labeled rI-FABP-L72A mutein: M18 I, G31 Y, F55 WT, A73 G) Fatty acid-binding protein, …: AFDGTWKVDRNENYEKFIEKMGINVVKRKLYAHDNLKLTITQEGNKFTVKESSNFRNIDVVFELGVDFAYSAGDGTELTGTWTMEGNKLVGKFKRVDNGKELIAVREISGNELIQTYTYEGVEAKRIFKKE	0.9	2.6	2.7	1.6	1.8	2.6	1.9
L2P2E11: acrylodan-labeled rI-FABP-L72A mutein: M18 I, G31 F, F55 WT, A73 WT (protein, UniProt P02693 2-132, looked up, variant M18I G31F L72A, acrylodan label) Fatty acid-binding protein, …: AFDGTWKVDRNENYEKFIEKMGINVVKRKLFAHDNLKLTITQEGNKFTVKESSNFRNIDVVFELGVDFAYSAADGTELTGTWTMEGNKLVGKFKRVDNGKELIAVREISGNELIQTYTYEGVEAKRIFKKE	0.8	2.5	2.8	1.6	1.9	2.6	2.0
L2P11B4: acrylodan-labeled rI-FABP-L72A mutein: M18 V, G31 A, F55 WT, A73 W (protein, UniProt P02693 2-132, looked up, variant M18V G31A L72A A73W, acrylodan label, acrylodan-labeled rI-FABP-L72A mutein: M18 V, G31 A, F55 WT, A73 W) Fatty acid-binding protein, …: AFDGTWKVDRNENYEKFVEKMGINVVKRKLAAHDNLKLTITQEGNKFTVKESSNFRNIDVVFELGVDFAYSAWDGTELTGTWTMEGNKLVGKFKRVDNGKELIAVREISGNELIQTYTYEGVEAKRIFKKE	0.7	2.6	2.8	1.9	1.8	3.1	2.2
L2P4C5: acrylodan-labeled rI-FABP-L72A mutein: M18 I, G31 Y, F55 WT, A73 WT (protein, UniProt P02693 2-132, looked up, variant M18I G31Y L72A, acrylodan label) Fatty acid-binding protein, …: AFDGTWKVDRNENYEKFIEKMGINVVKRKLYAHDNLKLTITQEGNKFTVKESSNFRNIDVVFELGVDFAYSAADGTELTGTWTMEGNKLVGKFKRVDNGKELIAVREISGNELIQTYTYEGVEAKRIFKKE	1.0	2.8	2.8	2.1	2.2	2.6	1.8
